Measured values: paper PMC5340040

Columns and labels:
[1] = target: MgF-actin (rabbit skeletal muscle actin, filament) (rabbit) (UniProt P68135)
[2] = target: MgF-actin (rabbit skeletal muscle actin, filament) (rabbit) (UniProt P68135); remark: listed apart in the source
[3] = target: MgF-actin (rabbit skeletal muscle actin, filament) (rabbit) (UniProt P68135); remark: listed apart in the source

Histatin-3 (peptide), sequence (P15516 20-51): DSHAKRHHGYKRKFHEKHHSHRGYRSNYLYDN

- NaCl concentration (0-200 mM) at which bundles of 4 μM F-actin induced by 16 μM histatin are largely dissociated (low speed centrifugation) [1]: 100 mM
- decrease of the fluorescence emission at 581 nm of 5 μM TRC-F-actin (TRC on Gln41) by 8 μM histatin-3 [2]: 22.3%
- bundling of 8 μM F-actin (low speed centrifugation): histatin concentration for 50% bundling [3]: 5 µM
Substance: Histatin-3 (peptide)
